Data set [1] can be described thus: WB abundance of GFP-β-catenin. Particulars: glycan gained; control: GFP-β-catenin + individual aptamers T1 · AP3.
Data set [2] can be described thus: WB phospho-specific antibody. The conditions noted are these: glycan gained; control: GFP-β-catenin + individual aptamers T1 · AP3.
A short description of data set [3]: WB abundance of endogenous β-catenin. Particulars: glycan gained; control: individual aptamers T1 · bc339.

B1: β-catenin: NL1F DS aptamers (protein)
parent chain: MATQADLMELDMAMEPDRKAAVSHWQQQSYLDSGIHSGATTTAPSLSGKGNPEEEDVDTSQVLYEWEQGFSQSFTQEQVADIDGQYAMTRAQRVRAAMFPETLDEGMQIPSTQFDAAHPTNVQRLAEPSQMLKHAVVNLINYQDDAELATRAIPELTKLLNDEDQVVVNKAAVMVHQLSKKEASRHAIMRSPQMVSAIVRTMQNTNDVETARCTAGTLHNLSHHREGLLAIFKSGGIPALVKMLGSPVDSVLFYAITTLHNLLLHQEGAKMAVRLAGGLQKMVALLNKTNVKFLAITTDCLQILAYGNQESKLIILASGGPQALVNIMRTYTYEKLLWTTSRVLKVLSVCSSNKPAIVEAGGMQALGLHLTDPSQRLVQNCLWTLRNLSDAATKQEGMEGLLGTLVQLLGSDDINVVTCAAGILSNLTCNNYKNKMMVCQVGGIEALVRTVLRAGDREDITEPAICALRHLTSRHQEAEMAQNAVRLHYGLPVVVKLLHPPSHWPLIKATVGLIRNLALCPANHAPLREQGAIPRLVQLLVRAHQDTQRRTSMGGTQQQFVEGVRMEEIVEGCTGALHILARDVHNRIVIRGLNTIPLFVQLLYSPIENIQRVAAGVLCELAQDKEAAEAIEAEGATAPLTELLHSRNEGVATYAAAVLFRMSEDKPQDYKKRLSVELTSSLFRTEPMAWNETADLGLDIGAQGEPLGYRQDDPSYRSFHSGGYGQDALGMDPMMEHEMGGHHPGADYPVDGLPDLGHAQDLMDGLPPGDSNQLAWFDTDL
For B1, the expression_or_secretion entry in data set [1] is given as “increases”.

B2: β-catenin: NL1F30 (protein)
parent chain: MATQADLMELDMAMEPDRKAAVSHWQQQSYLDSGIHSGATTTAPSLSGKGNPEEEDVDTSQVLYEWEQGFSQSFTQEQVADIDGQYAMTRAQRVRAAMFPETLDEGMQIPSTQFDAAHPTNVQRLAEPSQMLKHAVVNLINYQDDAELATRAIPELTKLLNDEDQVVVNKAAVMVHQLSKKEASRHAIMRSPQMVSAIVRTMQNTNDVETARCTAGTLHNLSHHREGLLAIFKSGGIPALVKMLGSPVDSVLFYAITTLHNLLLHQEGAKMAVRLAGGLQKMVALLNKTNVKFLAITTDCLQILAYGNQESKLIILASGGPQALVNIMRTYTYEKLLWTTSRVLKVLSVCSSNKPAIVEAGGMQALGLHLTDPSQRLVQNCLWTLRNLSDAATKQEGMEGLLGTLVQLLGSDDINVVTCAAGILSNLTCNNYKNKMMVCQVGGIEALVRTVLRAGDREDITEPAICALRHLTSRHQEAEMAQNAVRLHYGLPVVVKLLHPPSHWPLIKATVGLIRNLALCPANHAPLREQGAIPRLVQLLVRAHQDTQRRTSMGGTQQQFVEGVRMEEIVEGCTGALHILARDVHNRIVIRGLNTIPLFVQLLYSPIENIQRVAAGVLCELAQDKEAAEAIEAEGATAPLTELLHSRNEGVATYAAAVLFRMSEDKPQDYKKRLSVELTSSLFRTEPMAWNETADLGLDIGAQGEPLGYRQDDPSYRSFHSGGYGQDALGMDPMMEHEMGGHHPGADYPVDGLPDLGHAQDLMDGLPPGDSNQLAWFDTDL
Consider B2, for which, in data set [2], the “other: Ser675 phosphorylation” value was “increases”.

B3: β-catenin: 3JB8F+12 (protein)
parent chain: MATQADLMELDMAMEPDRKAAVSHWQQQSYLDSGIHSGATTTAPSLSGKGNPEEEDVDTSQVLYEWEQGFSQSFTQEQVADIDGQYAMTRAQRVRAAMFPETLDEGMQIPSTQFDAAHPTNVQRLAEPSQMLKHAVVNLINYQDDAELATRAIPELTKLLNDEDQVVVNKAAVMVHQLSKKEASRHAIMRSPQMVSAIVRTMQNTNDVETARCTAGTLHNLSHHREGLLAIFKSGGIPALVKMLGSPVDSVLFYAITTLHNLLLHQEGAKMAVRLAGGLQKMVALLNKTNVKFLAITTDCLQILAYGNQESKLIILASGGPQALVNIMRTYTYEKLLWTTSRVLKVLSVCSSNKPAIVEAGGMQALGLHLTDPSQRLVQNCLWTLRNLSDAATKQEGMEGLLGTLVQLLGSDDINVVTCAAGILSNLTCNNYKNKMMVCQVGGIEALVRTVLRAGDREDITEPAICALRHLTSRHQEAEMAQNAVRLHYGLPVVVKLLHPPSHWPLIKATVGLIRNLALCPANHAPLREQGAIPRLVQLLVRAHQDTQRRTSMGGTQQQFVEGVRMEEIVEGCTGALHILARDVHNRIVIRGLNTIPLFVQLLYSPIENIQRVAAGVLCELAQDKEAAEAIEAEGATAPLTELLHSRNEGVATYAAAVLFRMSEDKPQDYKKRLSVELTSSLFRTEPMAWNETADLGLDIGAQGEPLGYRQDDPSYRSFHSGGYGQDALGMDPMMEHEMGGHHPGADYPVDGLPDLGHAQDLMDGLPPGDSNQLAWFDTDL
Turning to B3, the expression_or_secretion result in data set [3] is given as “increases”.

B4: β-catenin: NL8F100 (protein)
parent chain: MATQADLMELDMAMEPDRKAAVSHWQQQSYLDSGIHSGATTTAPSLSGKGNPEEEDVDTSQVLYEWEQGFSQSFTQEQVADIDGQYAMTRAQRVRAAMFPETLDEGMQIPSTQFDAAHPTNVQRLAEPSQMLKHAVVNLINYQDDAELATRAIPELTKLLNDEDQVVVNKAAVMVHQLSKKEASRHAIMRSPQMVSAIVRTMQNTNDVETARCTAGTLHNLSHHREGLLAIFKSGGIPALVKMLGSPVDSVLFYAITTLHNLLLHQEGAKMAVRLAGGLQKMVALLNKTNVKFLAITTDCLQILAYGNQESKLIILASGGPQALVNIMRTYTYEKLLWTTSRVLKVLSVCSSNKPAIVEAGGMQALGLHLTDPSQRLVQNCLWTLRNLSDAATKQEGMEGLLGTLVQLLGSDDINVVTCAAGILSNLTCNNYKNKMMVCQVGGIEALVRTVLRAGDREDITEPAICALRHLTSRHQEAEMAQNAVRLHYGLPVVVKLLHPPSHWPLIKATVGLIRNLALCPANHAPLREQGAIPRLVQLLVRAHQDTQRRTSMGGTQQQFVEGVRMEEIVEGCTGALHILARDVHNRIVIRGLNTIPLFVQLLYSPIENIQRVAAGVLCELAQDKEAAEAIEAEGATAPLTELLHSRNEGVATYAAAVLFRMSEDKPQDYKKRLSVELTSSLFRTEPMAWNETADLGLDIGAQGEPLGYRQDDPSYRSFHSGGYGQDALGMDPMMEHEMGGHHPGADYPVDGLPDLGHAQDLMDGLPPGDSNQLAWFDTDL
For the protein B4, the expression_or_secretion result in data set [3] is “increases”.

Values taken from PMC9868088.
